Assay [1] addresses T1, NRP2a_scan 2 peptide (biotinylated) (human, also: biotin-conjugated, site not given here).
T1 peptide: PEIHEREGYEDE
Put plainly: BLI, peptide on sensor.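 Further: octet RED96e biolayer interferometry with biotin-conjugated NRP2 peptides spanning isoform-specific regions (human and mouse) loaded on biosensors, antibodies applied at 50 nM, association read over 300 s.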 On the technique in general: BLI is a label-free optical method that tracks binding on a fibre tip over time.

Assay [2] addresses Short NRP2A peptide (biotinylated) (human, biotin-conjugated, site not stated). Description: BLI, peptide on sensor.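 Further: octet RED96e biolayer interferometry with biotin-conjugated NRP2 peptides spanning isoform-specific regions (human and mouse) loaded on biosensors, antibodies applied at 50 nM, association read over 300 s.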
Assay [3] has as its target T2, NRP2a_scan 3 peptide (biotinylated) (human, also: biotin-conjugated, site not given here).
T2 peptide: HEREGYEDEIDD
Put plainly: BLI, peptide on sensor.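 Further: octet RED96e biolayer interferometry with biotin-conjugated NRP2 peptides spanning isoform-specific regions (human and mouse) loaded on biosensors, antibodies applied at 50 nM, association read over 300 s.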

Assay [4] concerns the target T3, NRP2a_scan 1 peptide (biotinylated) (human, also: biotin-conjugated, site not given here).
T3 peptide: VDIPEIHEREGY
Description: BLI, peptide on sensor.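 Further: octet RED96e biolayer interferometry with biotin-conjugated NRP2 peptides spanning isoform-specific regions (human and mouse) loaded on biosensors, antibodies applied at 50 nM, association read over 300 s.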

Assay [5] deals with T4, NRP2a_scan 7 peptide (biotinylated) (human, also: biotin-conjugated, site not given here).
T4 peptide: EYEVDWSNSSSA
Put plainly: BLI, peptide on sensor.

For assay [6], the target named is T5, NRP2a_scan 4 peptide (biotinylated) (human, also: biotin-conjugated, site not given here).
T5 peptide: EGYEDEIDDEYE
Description: BLI, peptide on sensor.

The target of assay [7] is T6, mNRP2b peptide (biotinylated) (mouse, biotin-conjugated, site not stated). Description: BLI, peptide on sensor.
T6 sequence (peptide, as listed by the source): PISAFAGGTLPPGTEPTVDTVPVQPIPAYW
The target in assay [8] is T7, NRP2A peptide (biotinylated) (human, biotin-conjugated, site not stated).
T7 construct: also called NPR2A; NRP2a specific peptide
Put plainly: BLI, isoform peptide on sensor, 50 nM antibody.

Assay [9] addresses T8, NRP2b peptide (biotinylated) (human, biotin-conjugated, site not stated).
T8 construct: also called NRP2b isoform specific peptide
T8 peptide: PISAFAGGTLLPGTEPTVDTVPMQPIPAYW
Description: peptide ELISA.

Assay [10] has as its target T9, NRP2a_scan 6 peptide (biotinylated) (human, also: biotin-conjugated, site not given here).
T9 peptide: IDDEYEVDWSNS
Put plainly: BLI, peptide on sensor, 50 nM antibody.

Assay [11] addresses T10, Mid-NRP2A peptide (biotinylated) (human, biotin-conjugated, site not stated).
T10 peptide: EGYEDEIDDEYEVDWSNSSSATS
Description: BLI, peptide on sensor, 50 nM antibody.

Assay [12] deals with T11, NRP2a_scan 5 peptide (biotinylated) (human, also: biotin-conjugated, site not given here).
T11 peptide: EDEIDDEYEVDW
Description: BLI, peptide on sensor, 50 nM antibody.

For the next assay, the target named is T12, NRP2v3.
T12 construct: not the NanoLuc-tagged construct m33; also called human NRP2 v3 expressed on Expi293F cells; NRP2a v3
T12 chain: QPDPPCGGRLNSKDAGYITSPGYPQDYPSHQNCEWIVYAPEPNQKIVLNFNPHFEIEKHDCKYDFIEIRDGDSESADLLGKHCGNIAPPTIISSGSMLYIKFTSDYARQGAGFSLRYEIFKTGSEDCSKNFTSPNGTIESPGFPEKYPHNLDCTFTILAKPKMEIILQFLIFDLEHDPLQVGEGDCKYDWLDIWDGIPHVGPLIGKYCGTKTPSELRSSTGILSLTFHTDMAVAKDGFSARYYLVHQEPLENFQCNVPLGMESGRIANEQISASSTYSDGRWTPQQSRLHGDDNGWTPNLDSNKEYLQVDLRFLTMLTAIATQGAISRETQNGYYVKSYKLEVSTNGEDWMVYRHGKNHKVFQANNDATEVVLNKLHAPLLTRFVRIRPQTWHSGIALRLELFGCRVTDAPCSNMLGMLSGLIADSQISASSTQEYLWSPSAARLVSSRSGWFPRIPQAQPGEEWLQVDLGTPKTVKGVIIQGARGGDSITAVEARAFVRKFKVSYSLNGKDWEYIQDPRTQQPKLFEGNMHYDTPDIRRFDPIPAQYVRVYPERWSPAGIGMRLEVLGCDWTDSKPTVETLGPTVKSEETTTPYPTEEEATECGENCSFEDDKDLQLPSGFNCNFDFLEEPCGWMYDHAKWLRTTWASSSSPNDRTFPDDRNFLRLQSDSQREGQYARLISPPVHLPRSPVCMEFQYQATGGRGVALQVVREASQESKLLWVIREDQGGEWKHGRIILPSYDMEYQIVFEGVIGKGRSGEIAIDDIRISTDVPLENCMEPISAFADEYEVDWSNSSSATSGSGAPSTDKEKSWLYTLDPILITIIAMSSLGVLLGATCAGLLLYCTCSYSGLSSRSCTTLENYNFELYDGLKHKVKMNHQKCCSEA
Put plainly: flow cytometry, Expi293F cells transfected with the target, fluorescent anti-mouse secondary; MFI signal relative to mock-transfected cells. A general note: In flow cytometry, cells or beads pass a laser one at a time.

In assay [13] the target is T13, mNRP2A peptide (biotinylated) (mouse, biotin-conjugated, site not stated).
T13 construct: also called mouse NRP2 isoform a peptide
Put plainly: BLI, peptide on sensor, 50 nM antibody.

In assay [14] the target is T14, Human NRP2a v2 (926aa) in pBiT2.1-C with C-terminal split NanoLuc tag, expressed in Expi293 cells (human, UniProt O60462 23-931).
T14 construct: cDNA Origene RCC220706, isoform 2; also called pBiT2.1-C-NRP2v2 (isoform 2); NRP2 v2; not shown: vector-encoded spacer and small split NanoLuc fragment (pBiT2.1-C)
Description: CCL21-induced NRP2a/CCR7 receptor dimerization (NanoBiT, Example 7); mark beside the epitope box.

The target in assay [15] is T15, human NRP2b expressed on Expi293F cells (human).
T15 construct: also called full length NRP2b
T15 chain: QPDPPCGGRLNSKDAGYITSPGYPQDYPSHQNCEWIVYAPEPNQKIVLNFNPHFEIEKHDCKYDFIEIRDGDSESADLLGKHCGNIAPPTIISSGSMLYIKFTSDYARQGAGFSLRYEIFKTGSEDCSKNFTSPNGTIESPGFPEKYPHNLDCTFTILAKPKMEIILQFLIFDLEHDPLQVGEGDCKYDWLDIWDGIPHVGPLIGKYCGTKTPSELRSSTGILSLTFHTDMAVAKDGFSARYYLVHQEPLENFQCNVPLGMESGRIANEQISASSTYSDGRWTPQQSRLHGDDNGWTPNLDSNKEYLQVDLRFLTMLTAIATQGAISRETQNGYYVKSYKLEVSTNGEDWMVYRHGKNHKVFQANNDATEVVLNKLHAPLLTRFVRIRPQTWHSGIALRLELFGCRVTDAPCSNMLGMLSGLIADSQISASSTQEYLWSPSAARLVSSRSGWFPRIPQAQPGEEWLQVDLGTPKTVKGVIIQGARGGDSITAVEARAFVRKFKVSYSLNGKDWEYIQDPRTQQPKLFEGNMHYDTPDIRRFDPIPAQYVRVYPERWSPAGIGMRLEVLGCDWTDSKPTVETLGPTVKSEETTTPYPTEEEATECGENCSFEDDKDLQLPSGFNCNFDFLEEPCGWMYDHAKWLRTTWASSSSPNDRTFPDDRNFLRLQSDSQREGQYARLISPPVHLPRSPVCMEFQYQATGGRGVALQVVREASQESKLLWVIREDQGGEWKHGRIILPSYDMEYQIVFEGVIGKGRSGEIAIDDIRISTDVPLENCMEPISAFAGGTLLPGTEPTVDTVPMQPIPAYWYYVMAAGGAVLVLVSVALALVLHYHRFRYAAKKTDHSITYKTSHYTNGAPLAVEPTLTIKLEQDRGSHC
Put plainly: flow cytometry, Expi293F cells transfected with the target, fluorescent anti-mouse secondary; MFI signal relative to mock-transfected cells.
Description: (§1) Signal to noise was calculated as the staining intensity of transfected cells compared to an un-transfected ‘mock’ population.

Assay [16] has as its target T9, NRP2a_scan 6 peptide (biotinylated). Put plainly: BLI, peptide on sensor.
Assay [17] concerns the target T16, Mid-mNRP2A peptide (biotinylated) (mouse, biotin-conjugated, site not stated).
T16 peptide: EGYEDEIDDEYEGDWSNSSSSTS
Put plainly: BLI, peptide on sensor.

Assay [18] deals with T10, Mid-NRP2A peptide (biotinylated). Description: BLI, peptide on sensor.
The target in assay [19] is T11, NRP2a_scan 5 peptide (biotinylated). Description: BLI, peptide on sensor.
In assay [20] the target is T6, mNRP2b peptide (biotinylated). Put plainly: BLI, peptide on sensor, 50 nM antibody.
Assay [21] addresses T17, human NRP2a v2 expressed on Expi293F cells (human, UniProt O60462 23-931).
T17 construct: cDNA Origene RCC220706; also called NRP2 v2
Put plainly: flow cytometry, Expi293F cells transfected with the target, fluorescent anti-mouse secondary; MFI signal relative to mock-transfected cells.
Description: as §1

The values below come from patent US20240417476A1 (ATYR PHARMA, published 2024).

Ends that are not written are not given here.

Description for NRP2v3: as §1

B1: aNRP2-403v2 (antibody, V domains shown)
VH: QVQLQQPGAELVKPGASVKLSCKASGYTFTSYWMHWVKQRPGRGLEWIGRIDPNSGDTKYNEKFKSKATLTVDKPSSTAYMQVSSLTSEDSAVYYCARSYDYALEYWGQGTSVTVSS
VL: DVVMTQTPLSLPVSLGDQASISCRSSQSLVHSNGNTYLHWFLQKPGQSPNLLIYKVSNRFSGVPDRFSGSGSGTDFTLKISRVEAEDLGVYFCSQNTRVPRTFGGGTKLEIK
notes: Mouse monoclonal
Regarding B1, the binding result in assay [1], in assay [2], in [3], in assay [4], in assay [5] and in assay [6] was “no binding (tested: 50 nM)” each time. The binding result in assay [7] is “no binding (tested: 50 nM)”; in assay [8], “binds”; in assay [9], “no binding (tested: <3x blank)”; in assay [10], “binds”; in [11], “binds”; in [12], “binds”.

B2: aNRP2-402v2 (antibody, V domains shown)
VH: EVQLVESGGDLVKPGGSLKLSCAASGFTFSNYAMSWVRQTPEKRLEWVASISDGGSYTYYPDNVKGRFTISRDSAKKSLYLQMSHLKSEDTAMYYCTKDGGPREGYFDVWGTGTTVTVSS
VL: DVLMTQTPLSLPVSLGDQASISCRSSQSIVHSNGNTYLEWYLQKPGQSPKLLIYKVSNRFSGVPDRFSGSGSGTDFTLKISRVEAEDLGVYYCFQGSHVPYTFGGGTKLEIK
notes: Mouse monoclonal
On to B2, for which the binding result in assay [1], in [2], in assay [3], in assay [4], in assay [5] and in assay [6] was “no binding (tested: 50 nM)” throughout. Further, the binding result is “binds” in assay [8]; “binds” with NRP2v3; “no binding (tested: <3x blank)” in [9]; “binds” in assay [10]; “binds” in [13]; “binds” in assay [11]. In addition, the binding result in assay [12] is “binds”; in assay [15], “no binding”. Besides, the blocks receptor dimerization in assay [14] was under 50%.

B3: aNRP2-406v2 (antibody, V domains shown)
VH: EVQLQQSGPELVKPGASVKISCKASGYSFTGYFMNWVKQSHGKSLEWIGRINPYNGDTFYNQKFKGKATLTVDKSSSTAHMALLSLTSEDSAVYYCGREVAEVPFDYWGQGTTLTVSS
VL: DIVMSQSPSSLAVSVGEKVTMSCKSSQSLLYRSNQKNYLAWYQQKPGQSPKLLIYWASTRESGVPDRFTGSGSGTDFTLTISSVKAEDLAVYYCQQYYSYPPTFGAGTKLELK
notes: Mouse monoclonal
Consider B3, for which the binding result in assay [16], in assay [1], in assay [2], in assay [17], in [3] and in [4] was “no binding (tested: 50 nM)” in each case. The binding result was “no binding (tested: 50 nM)” in [5]; “no binding (tested: 50 nM)” in [18]; “no binding (tested: 50 nM)” in assay [6]; “no binding (tested: 50 nM)” in [19]; “binds” in assay [8]; “binds” with NRP2v3. In addition, the binding result in assay [13], in assay [20] and in assay [21] was “binds” each time.
